Values of other authors in PMC7094366.
pKd: −log10 of the molar value.

Target: SARS-CoV 3C-like proteinase (Severe acute respiratory syndrome coronavirus) (UniProt P0C6X7)

Substance: SARS-CoV 3C-like proteinase (from UniProt P0C6X7)
- pKd: 4.00
